Results on nine molecules are retold here after patent publication US20050203007A1 (REGENTS OF THE UNIVERSITY OF MICHIGAN, published 2005).

In test [1] the target is T1, secreted, soluble furin (human, UniProt P09958 108-715, limits assumed).
T1 construct: Secreted, soluble construct; also called human furin
The test can be described thus: rapid furin inhibition assay; table lists substitutions with equal or enhanced inhibition of furin relative to the template. The method, then: 3. Rapid screening of libraries. Libraries were introduced into E. coli BL21 (DE3) cells and individual, cloned transformants were grown by shaking at 37° C. in 200 μl LB containing […] kanamycin in 96-well, 0.45 μm GHP membrane filter plates (Gelman) (FIG. 2). When O.D. 600 values reached 0.4, 60 μl of culture were transferred to secondary 96-well plates (Falcon), adjusted to 10% glycerol, and stored at −80° C. These frozen stocks served as master copies of the libraries. IPTG was added to the cultures to a final concentration of 1 mM, and the cultures were allowed to express eglin c variants for one hour in the filter plate. Expressed eglin c variants were extracted from the cells with 50 mM Tris-HCl pH 8.0 containing 2 mM EDTA following freezing and thawing. These extracts were collected as filtrates by centrifugation of the filter plate above a second plate. The filtrates, representing partially purified eglin c variants, were analyzed using a rapid fluorescence-based assay for processing enzyme inhibition as described below in Section 5. […] Frozen cells were cultured in 50 to 100 ml culture volumes, and DNA maxipreps were performed; the DNA preparations were then sequenced by automated DNA sequencing. Selected variants were expressed and purified on a larger scale, and affinities for furin or Kex2 were examined quantitatively (see below).
5. Rapid protease inhibition assay. Novel eglin variants were diluted 50-fold and incubated with secreted, soluble furin (0.5 nM) for 15 min in 96-well plates. The furin substrate (Boc-Arg-Val-Arg-Arg-MCA) was added, and release of AMC was monitored continuously in a 96-well fluorescence plate reader for 20 min, as described under Example 1. […] The plasmid DNA encoding such eglin c variant inhibitors were isolated and sequenced.

Test [2] has as its target T2, secreted, soluble Kex2 (Saccharomyces cerevisiae, UniProt P13134 114-613, limits assumed).
T2 construct: Secreted, soluble construct; also called kexin
T2 sequence (looked up): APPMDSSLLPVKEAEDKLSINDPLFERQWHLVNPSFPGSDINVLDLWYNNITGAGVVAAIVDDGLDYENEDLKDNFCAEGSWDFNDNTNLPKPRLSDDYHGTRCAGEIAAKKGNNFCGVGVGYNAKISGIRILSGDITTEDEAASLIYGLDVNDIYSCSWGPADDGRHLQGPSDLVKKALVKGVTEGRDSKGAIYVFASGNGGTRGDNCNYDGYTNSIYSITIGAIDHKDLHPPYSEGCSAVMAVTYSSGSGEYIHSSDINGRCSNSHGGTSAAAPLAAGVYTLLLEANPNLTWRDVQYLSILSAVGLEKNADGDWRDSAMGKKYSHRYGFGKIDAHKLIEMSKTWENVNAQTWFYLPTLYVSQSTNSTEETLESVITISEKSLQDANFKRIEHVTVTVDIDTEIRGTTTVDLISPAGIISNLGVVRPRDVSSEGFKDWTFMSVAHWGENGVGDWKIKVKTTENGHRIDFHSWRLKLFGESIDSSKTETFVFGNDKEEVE
The test can be described thus: affinity of purified variants, enzyme inhibition.

Test [3] has as its target T2, secreted, soluble Kex2. The test can be described thus: enzyme inhibition, purified variant. The method, then: (§1) Affinities of eglin variants with secreted, soluble Kex2 (hereafter “Kex2”; Brenner, C. and Fuller, R. S. (1992) Proc. Natl. Acad. Sci. USA 89: 922-926) and secreted, soluble furin (hereafter, “furin”; Bravo, D. A. et al (1994) J. Biol. Chem. 269: 25830-25837; and Komiyama & Fuller (2000) Biochemistry 39: 15156-15165) were measured by incubating variants with the enzymes (˜0.5 to 2.0 nM) for 45 min to 1 h at 21° C. in one of two enzyme assay buffers. For Kex2, the buffer was 200 mM Bistris (pH 7.27) containing 1 mM CaCl₂ and 0.1% Triton X-100; and for furin, the buffer was 20 mM NaMES (pH 7.0) containing 1 mM CaCl₂ and 0.1% Triton X-100 for furin. 100 to 200 μL aliquots of reaction mixtures were transferred into triplicate wells of opaque 96 well plates (Costar), and residual enzyme activity was measured with an fmax fluorescence micro plate reader (Molecular Devices) by monitoring hydrolysis of a fluorogenic substrate Boc-Arg-Val-Arg-Arg-MCA. Data were graphically analyzed (KaleidaGraph) with an equation developed by Green and Work (1953). Site-directed mutagenesis at P2 and P6 of eglin c generated temporary inhibitors (Table 3) and exhausted possibility to improve affinity further with this approach.

Test [4] concerns the target T1, secreted, soluble furin. In words: enzyme inhibition, purified variant. As to the method:
as §1

Test [5] concerns the target T2, secreted, soluble Kex2. In words: enzyme inhibition, purified variant; Kassoc.
The target in test [6] is T3, human PC7 (human, UniProt Q16549 142-667, limits assumed).
T3 sequence (looked up): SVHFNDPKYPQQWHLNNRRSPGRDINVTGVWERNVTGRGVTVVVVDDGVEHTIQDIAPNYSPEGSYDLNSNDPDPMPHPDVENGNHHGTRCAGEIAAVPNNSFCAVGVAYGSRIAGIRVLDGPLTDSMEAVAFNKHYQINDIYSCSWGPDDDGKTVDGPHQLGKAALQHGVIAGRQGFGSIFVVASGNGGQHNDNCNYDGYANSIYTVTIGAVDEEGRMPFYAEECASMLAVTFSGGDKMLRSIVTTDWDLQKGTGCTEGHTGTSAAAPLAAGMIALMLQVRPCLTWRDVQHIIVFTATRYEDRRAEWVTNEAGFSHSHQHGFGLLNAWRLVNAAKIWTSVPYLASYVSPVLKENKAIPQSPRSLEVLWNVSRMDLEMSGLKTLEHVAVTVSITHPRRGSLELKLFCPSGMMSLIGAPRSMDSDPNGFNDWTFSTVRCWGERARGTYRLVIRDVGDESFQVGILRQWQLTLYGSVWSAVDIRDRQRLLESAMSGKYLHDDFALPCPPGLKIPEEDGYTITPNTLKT
The test can be described thus: enzyme inhibition, purified variant; Kassoc.

The target of test [7] is T1, secreted, soluble furin. The test can be described thus: enzyme inhibition, purified variant; Kassoc.
Test [8] has as its target T2, secreted, soluble Kex2. The test can be described thus: enzyme inhibition, purified variant. This is another data set of the same source.
In test [9] the target is T3, human PC7. The test can be described thus: enzyme inhibition, purified variant.
The target of test [10] is T1, secreted, soluble furin. The test can be described thus: enzyme inhibition, purified variant. This is another data set of the same source.
Test [11] concerns the target T2, secreted, soluble Kex2. In words: enzyme inhibition, fluorogenic substrate; * temporary inhibition. The method, then: as §1
Test [12] addresses T1, secreted, soluble furin. The description is as above. The method, then:
as §1

Test [13] has as its target T2, secreted, soluble Kex2. In words: equilibrium enzyme inhibition, fluorogenic substrate. As to the method:
as §1

Test [14] concerns the target T2, secreted, soluble Kex2. In words: equilibrium enzyme inhibition. The method, then:
(§2) Thus, R1-eglin refers to substitution of Arg at position P1.
(§3) Affinities of eglin variants with secreted, soluble Kex2 (hereafter “Kex2”; Brenner, C. and Fuller, R. S. (1992) Proc. Natl. Acad. Sci. USA 89: 922-926) and secreted, soluble furin (hereafter, “furin”; Bravo, D. A. et al (1994) J. Biol. Chem. 269: 25830-25837; and Komiyama & Fuller (2000) Biochemistry 39: 15156-15165) were measured by incubating variants with the enzymes (˜0.5 to 2.0 nM) for 45 min to 1 h at 21° C. in one of two enzyme assay buffers. For Kex2, the buffer was 200 mM Bistris (pH 7.27) containing 1 mM CaCl₂ and 0.1% Triton X-100; and for furin, the buffer was 20 mM NaMES (pH 7.0) containing 1 mM CaCl₂ and 0.1% Triton X-100 for furin.

The target in test [15] is T1, secreted, soluble furin. The test can be described thus: equilibrium enzyme inhibition. The method, then:
as §2, §3

Test [16] has as its target T1, secreted, soluble furin. The test can be described thus: calculated from kon (progress curves) and Ka. The method, then: In some aspects of the present invention, biological application of the eglin c variants of the present invention as inhibitors of processing in vivo depends upon the rate of binding to target enzymes, where it is critical. Therefore, the rate of action of eglin variants with Kex2 and furin was examined by incubating 5×10⁻¹⁰ M enzyme with inhibitor at molar ratios of inhibitor to enzyme ranging from 10 to 80. […] The relationship between kobs and inhibitor concentration was linear. The values of kₒₙ were determined from the slope of such curves, and dissociation rate constants (koff) were calculated (koff=kₒₙ/Kₐ). For R4R1-eglin, koff was calculated to be 2×10⁻⁴s⁻¹ for Kex2, and 3×10⁻⁴s⁻¹ for furin. […] Similarly, the t_{1/2} of the complex of M4R1-eglin with Kex2 was estimated to be 3 h. For complex of R4K1-eglin with furin, koff was calculated to be 2×10⁻⁴s⁻¹ implying that the koff and t_{1/2} for this complex are similar to those for the complex of R4R1-eglin with furin.

Test [17] concerns the target T1, secreted, soluble furin. The test can be described thus: equilibrium enzyme inhibition, fluorogenic substrate. The method, then:
as §1

T1 sequence (P09958 108-715 limits assumed): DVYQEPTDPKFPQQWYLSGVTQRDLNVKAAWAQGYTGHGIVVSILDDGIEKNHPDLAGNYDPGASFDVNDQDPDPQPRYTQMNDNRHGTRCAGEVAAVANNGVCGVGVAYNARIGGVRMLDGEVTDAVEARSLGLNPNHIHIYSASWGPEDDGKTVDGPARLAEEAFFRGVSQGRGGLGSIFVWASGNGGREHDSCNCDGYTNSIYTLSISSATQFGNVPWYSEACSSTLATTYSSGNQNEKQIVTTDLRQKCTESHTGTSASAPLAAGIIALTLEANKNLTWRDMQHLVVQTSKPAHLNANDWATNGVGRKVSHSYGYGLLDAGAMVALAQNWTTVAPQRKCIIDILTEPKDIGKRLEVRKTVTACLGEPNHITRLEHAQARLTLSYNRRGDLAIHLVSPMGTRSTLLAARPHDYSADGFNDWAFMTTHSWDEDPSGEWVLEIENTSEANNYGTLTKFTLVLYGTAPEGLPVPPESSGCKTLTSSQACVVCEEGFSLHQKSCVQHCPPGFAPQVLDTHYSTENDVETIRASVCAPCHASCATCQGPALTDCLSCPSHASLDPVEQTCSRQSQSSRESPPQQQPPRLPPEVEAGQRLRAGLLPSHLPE

B1: Glu39Pro-R4R1-eglin (designed binder)
chain: SMGSELKSFPEVVGKTVDQAREYFTLHYPQYDVYFLPPGSRVTRDLRYNRVRVFYNPGTNVVNHVPHVG
Consider B1, for which the binding result in the test with secreted, soluble furin [1] is listed as “binds”; with secreted, soluble Kex2 [2] it was “binds”.

B2: Tyr49Asp-R4R1-eglin (designed binder)
chain: SMGSELKSFPEVVGKTVDQAREYFTLHYPQYDVYFLPEGSRVTRDLRDNRVRVFYNPGTNVVNHVPHVG
notes: R4R1 template; N-terminal Met removed; also called Asp49-R4R1-eglin; Asp49-R4R1-
One may read the Ki as a dissociation constant, usually derived from enzyme kinetics or from competition with a known ligand. With B2, the Ki in the test with secreted, soluble Kex2 [3] came to 0.045 nM; with secreted, soluble furin [4], 0.33 nM; with secreted, soluble Kex2 [8], 0.056 nM; in the test with human PC7 [9] it was 1.8 nM; in the test with secreted, soluble furin [10] it was 0.3 nM. Besides, the “Ki ratio (to R4R1- template)” value was determined as 0.05 with secreted, soluble Kex2 [3] and 0.132 in the test with secreted, soluble furin [4]. In addition, the “fold enhanced affinity (relative to R4R1-eglin)” value was found to be 16 fold in the test with secreted, soluble Kex2 [3] and 10 fold with secreted, soluble furin [4]. Further, the Ka is 1.8e+10 M⁻¹ with secreted, soluble Kex2 [5]; 5.6e+08 M⁻¹ in the test with human PC7 [6]; 3e+09 M⁻¹ with secreted, soluble furin [7].

B3: M4K2R1-eglin (designed binder)
chain: SMGSELKSFPEVVGKTVDQAREYFTLHYPQYDVYFLPEGSMVKRDLRYNRVRVFYNPGTNVVNHVPHVG
notes: N-terminal Met removed
For B3, the Ki in the test with secreted, soluble Kex2 [11] came out at 0.59 nM; in the test with secreted, soluble furin [12], 83 nM.

B4: Glu39Ser-R4R1-eglin (designed binder)
chain: SMGSELKSFPEVVGKTVDQAREYFTLHYPQYDVYFLPSGSRVTRDLRYNRVRVFYNPGTNVVNHVPHVG
Regarding B4, the binding result is “binds” with secreted, soluble furin [1] and “binds” with secreted, soluble Kex2 [2].

B5: R6R4R1-eglin (designed binder)
chain: SMGSELKSFPEVVGKTVDQAREYFTLHYPQYDVYFLPERSRVTRDLRYNRVRVFYNPGTNVVNHVPHVG
notes: N-terminal Met removed; also called Gly40 Arg on R4R1-template
For the molecule B5, the inhibitory constant (Ki) with secreted, soluble Kex2 [13] was 0.29 nM; in the test with secreted, soluble furin [12], 2 nM.

B6: R4K1-eglin (designed binder)
chain: SMGSELKSFPEVVGKTVDQAREYFTLHYPQYDVYFLPEGSRVTKDLRYNRVRVFYNPGTNVVNHVPHVG
notes: N-terminal Met removed; also called R4K1-template
What is called koff is the rate constant with which the complex falls apart. As for B6, the Ki was 2.5 nM in the test with secreted, soluble Kex2 [3]; 38 nM with secreted, soluble furin [4]; 2.5 nM with secreted, soluble Kex2 [13]; 38 nM with secreted, soluble furin [17]. The “Ki ratio (to R4K1- template)” value came out at 1 with secreted, soluble Kex2 [3] and 1 in the test with secreted, soluble furin [4]. Besides, in the test with secreted, soluble Kex2 [14], the “fold decrease of Ka relative to R4R1-eglin” value was 2.8 fold. Moreover, in the test with secreted, soluble Kex2 [14], the “fold higher affinity for Kex2 than for furin” value was approximately 20 fold. Besides, the “fold reduction of Ka relative to R4R1-eglin” value with secreted, soluble furin [15] is 15.4 fold. The koff in the test with secreted, soluble furin [16] is 0.0002 s⁻¹.

B7: R4K2R1-eglin (designed binder)
chain: SMGSELKSFPEVVGKTVDQAREYFTLHYPQYDVYFLPEGSRVKRDLRYNRVRVFYNPGTNVVNHVPHVG
notes: N-terminal Met removed
For the molecule B7, the Ki in the test with secreted, soluble Kex2 [11] is approximately 0.5 nM; with secreted, soluble furin [12], approximately 0.5 nM.

B8: K2R1-eglin (designed binder)
chain: SMGSELKSFPEVVGKTVDQAREYFTLHYPQYDVYFLPEGSPVKRDLRYNRVRVFYNPGTNVVNHVPHVG
notes: N-terminal Met removed
As for B8, the Ki is 0.67 nM in the test with secreted, soluble Kex2 [11] and 100 nM with secreted, soluble furin [12].

B9: Glu39Tyr-R4R1-eglin (designed binder)
chain: SMGSELKSFPEVVGKTVDQAREYFTLHYPQYDVYFLPYGSRVTRDLRYNRVRVFYNPGTNVVNHVPHVG
Take B9: the binding result is listed as “binds” with secreted, soluble furin [1] and “binds” in the test with secreted, soluble Kex2 [2].
